# Experimental data reported in paper PMC5905600, “Structural and Immunodiagnostic Characterization of Synthetic Antigen B Subunits From Echinococcus granulosus and Their Evaluation as Target Antigens for Cyst Viability Assessment” (Clinical Infectious Diseases: An Official Publication of …, 2017).
# Values joined by “and” are separate entries in the source; they are usually repeats but may differ in a detail not shown here. Equal entries are not always repeated.
# Tests used:
# [1] = biological target: Antigen B subunit 1 (AgB1), synthetic (Echinococcus granulosus); assay: cross-linking; subunits with a 10-fold or a 100-fold excess of EDC; SDS-PAGE under reducing conditions; western immunoblotting with WSH serum
# [2] = biological target: Antigen B subunit 1 (AgB1), synthetic (Echinococcus granulosus); assay: cross-linking; each single subunit with a 100-fold molar excess of EDC; SDS-PAGE in reducing and nonreducing conditions; bands digested in situ, LC-MS/MS, cross-linked peptides identified with StavroX
# [3] = biological target: Antigen B subunit 2 (AgB2), synthetic (Echinococcus granulosus); assay: SEC; single synthetic subunits; 50 mM sodium phosphate, 150 mM NaCl, pH 7.4; AKTA Explorer 10; size by calibration with standard proteins (apparent molecular weight)
# [4] = biological target: the molecule itself; assay: as above
molecule,measurement,setting,value
"Antigen B subunit 1 (AgB1), synthetic (natural protein)",stoichiometry N,[1],3 and 4 and 5
same,stoichiometry N,[2],2 and 3 and 4
"Antigen B subunit 2 (AgB2), synthetic (natural protein)",stoichiometry N,[3],6.8 units
"Antigen B subunit 3 (AgB3), synthetic (natural protein) DDDDEVTKTKKGVMKAISEIKHFFQSDPLGKKLVEVMKDVASVCEMVRKKARMALKEYVRKLVKEDE",stoichiometry N,[4],6.6 units
"Antigen B subunit 4 (AgB4), synthetic (natural protein) KAEPERCKCLIMRKLGEIRDFFRSDPLGQKLAALGRDLTAICQKLQLKVHEVLKKYVKDLLEEEDEDDLK",stoichiometry N,[4],6
